# T1: SEMA4D_(ecto)(K395D) (human, UniProt Q92854 22-677, K395D)
# T1 sequence: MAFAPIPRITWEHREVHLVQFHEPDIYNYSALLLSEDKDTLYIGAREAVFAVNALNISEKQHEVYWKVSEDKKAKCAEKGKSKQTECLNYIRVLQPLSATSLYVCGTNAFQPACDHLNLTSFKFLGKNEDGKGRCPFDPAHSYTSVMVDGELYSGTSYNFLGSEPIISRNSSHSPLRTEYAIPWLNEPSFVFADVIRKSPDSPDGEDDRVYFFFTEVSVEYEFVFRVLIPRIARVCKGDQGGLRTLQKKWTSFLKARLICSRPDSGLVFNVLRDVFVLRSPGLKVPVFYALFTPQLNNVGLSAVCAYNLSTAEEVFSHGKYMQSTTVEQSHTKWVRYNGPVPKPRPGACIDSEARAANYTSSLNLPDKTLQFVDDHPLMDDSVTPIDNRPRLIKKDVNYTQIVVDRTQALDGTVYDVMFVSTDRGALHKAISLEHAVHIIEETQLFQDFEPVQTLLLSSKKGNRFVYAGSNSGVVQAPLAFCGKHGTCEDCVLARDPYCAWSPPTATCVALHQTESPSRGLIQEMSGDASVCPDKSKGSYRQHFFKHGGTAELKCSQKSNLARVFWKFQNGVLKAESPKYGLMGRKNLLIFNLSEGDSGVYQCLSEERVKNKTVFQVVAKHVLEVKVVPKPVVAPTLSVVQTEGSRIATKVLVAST
# T2: human SEMA4D_(ecto), C-terminal His-tag (human, UniProt Q92854 22-677)
# T2 sequence: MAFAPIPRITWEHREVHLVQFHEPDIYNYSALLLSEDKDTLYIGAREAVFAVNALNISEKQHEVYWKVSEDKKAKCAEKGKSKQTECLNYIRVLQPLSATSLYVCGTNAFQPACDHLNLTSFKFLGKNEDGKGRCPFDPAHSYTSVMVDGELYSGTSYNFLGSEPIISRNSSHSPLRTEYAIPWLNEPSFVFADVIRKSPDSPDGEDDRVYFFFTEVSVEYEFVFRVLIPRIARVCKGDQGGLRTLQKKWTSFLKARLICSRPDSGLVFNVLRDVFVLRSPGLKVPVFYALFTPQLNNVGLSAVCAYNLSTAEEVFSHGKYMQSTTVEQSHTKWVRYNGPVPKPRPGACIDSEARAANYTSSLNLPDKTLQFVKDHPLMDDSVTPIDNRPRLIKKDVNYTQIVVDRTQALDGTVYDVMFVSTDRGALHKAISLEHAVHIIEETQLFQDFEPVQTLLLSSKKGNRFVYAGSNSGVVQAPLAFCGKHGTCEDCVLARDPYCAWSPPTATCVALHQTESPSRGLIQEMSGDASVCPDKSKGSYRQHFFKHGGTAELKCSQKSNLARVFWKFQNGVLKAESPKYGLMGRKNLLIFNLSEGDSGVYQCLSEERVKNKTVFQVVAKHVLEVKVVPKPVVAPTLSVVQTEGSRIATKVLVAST
# T3: mouse PlxnA2_(1–4), C-terminal His-tag (mouse, UniProt P70207 35-703)
# T3 sequence: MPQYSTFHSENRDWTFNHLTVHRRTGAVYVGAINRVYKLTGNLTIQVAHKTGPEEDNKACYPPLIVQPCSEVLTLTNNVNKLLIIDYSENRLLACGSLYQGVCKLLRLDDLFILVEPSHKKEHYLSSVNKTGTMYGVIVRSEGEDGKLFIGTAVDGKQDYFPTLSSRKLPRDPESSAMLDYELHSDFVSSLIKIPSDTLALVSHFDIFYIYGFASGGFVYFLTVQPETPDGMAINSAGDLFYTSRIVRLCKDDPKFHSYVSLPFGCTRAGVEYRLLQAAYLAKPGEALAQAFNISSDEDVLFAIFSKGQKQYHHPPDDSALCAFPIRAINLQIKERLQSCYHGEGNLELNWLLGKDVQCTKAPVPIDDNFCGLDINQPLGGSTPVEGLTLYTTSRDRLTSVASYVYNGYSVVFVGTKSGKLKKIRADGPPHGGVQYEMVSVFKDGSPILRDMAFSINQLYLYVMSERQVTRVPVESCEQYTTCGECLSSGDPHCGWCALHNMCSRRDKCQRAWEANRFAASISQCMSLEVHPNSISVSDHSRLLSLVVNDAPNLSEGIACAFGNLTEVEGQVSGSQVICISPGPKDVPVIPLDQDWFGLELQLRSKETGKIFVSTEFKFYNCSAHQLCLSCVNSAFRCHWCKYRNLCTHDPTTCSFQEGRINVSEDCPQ
# Experiments:
# SEMA4D_(ecto)(K395D) = target: T1, SEMA4D_(ecto)(K395D); test: SPR
# [1] = target: T2, human SEMA4D_(ecto), C-terminal His-tag; test: crystal structure
# [2] = target: T3, mouse PlxnA2_(1–4), C-terminal His-tag; test: SPR
# PlxnA2_(1–4)(D193K) = PlxnA2_(1–4)(D193K) (mouse, UniProt P70207 35-703, D193K); test: SPR
binder,measurement,setting,value
PLXNB1_(1–2)(D139K) (domain or fragment) LQPLPPTAFTPNGTYLQHLARDPTSGTLYLGATNFLFQLSPGLQLEATVSTGPVLDSRDCLPPVMPDECPQAQPTNNPNQLLLVSPGALVVCGSVHQGVCEQRRLGQLEQLLLRPERPGKTQYVAANDPAVSTVGLVAQGLAGEPLLFVGRGYTSRGVGGGIPPITTRALWPPDPQAAFSYEETAKLAVGRLSEYSHHFVSAFARGASAYFLFLRRDLQAQSRAFRAYVSRVCLRDQHYYSYVELPLACEGGRYGLIQAAAVATSREVAHGEVLFAAFSSAAPPTVGRPPSAAAGASGASALCAFPLDEVDRLANRTRDACYTREGRAEDGTEVAYIEYDVNSDCAQLPVDTLDAYPCGSDHTPSPMASRVPLEATPILEWPGIQLTAVAVTMEDGHTIAFLGDSQGQLHRVYLGPGSDGHPYSTQSIQQGSAVSRDLTFDGTFEHLYVMTQSTLLKVPVASCAQHLDCASCLAHRDPYCGWCVLLGRCSRRSECSRGQGPEQWLWSFQPELGCLQ,binding result,SEMA4D_(ecto)(K395D),binds
"human PLXNB1_(1–2), C-terminal His-tag (domain or fragment) LQPLPPTAFTPNGTYLQHLARDPTSGTLYLGATNFLFQLSPGLQLEATVSTGPVLDSRDCLPPVMPDECPQAQPTNNPNQLLLVSPGALVVCGSVHQGVCEQRRLGQLEQLLLRPERPGDTQYVAANDPAVSTVGLVAQGLAGEPLLFVGRGYTSRGVGGGIPPITTRALWPPDPQAAFSYEETAKLAVGRLSEYSHHFVSAFARGASAYFLFLRRDLQAQSRAFRAYVSRVCLRDQHYYSYVELPLACEGGRYGLIQAAAVATSREVAHGEVLFAAFSSAAPPTVGRPPSAAAGASGASALCAFPLDEVDRLANRTRDACYTREGRAEDGTEVAYIEYDVNSDCAQLPVDTLDAYPCGSDHTPSPMASRVPLEATPILEWPGIQLTAVAVTMEDGHTIAFLGDSQGQLHRVYLGPGSDGHPYSTQSIQQGSAVSRDLTFDGTFEHLYVMTQSTLLKVPVASCAQHLDCASCLAHRDPYCGWCVLLGRCSRRSECSRGQGPEQWLWSFQPELGCLQ",binding result,[1],binds
"mouse Sema6A_(ecto), biotinylated at an engineered C-terminal tag (domain or fragment, biotin on the engineered C-terminal tag (enzymatic)) GFPEDSEPISISHGNYTKQYPVFVGHKPGRNTTQRHRLDIQMIMIMNRTLYVAARDHIYTVDIDTSHTEEIYCSKKLTWKSRQADVDTCRMKGKHKDECHNFIKVLLKKNDDTLFVCGTNAFNPSCRNYRVDTLETFGDEFSGMARCPYDAKHANIALFADGKLYSATVTDFLAIDAVIYRSLGDSPTLRTVKHDSKWLKEPYFVQAVDYGDYIYFFFREIAVEYNTMGKVVFPRVAQVCKNDMGGSQRVLEKQWTSFLKARLNCSVPGDSHFYFNILQAVTDVIRINGRDVVLATFSTPYNSIPGSAVCAYDMLDIANVFTGRFKEQKSPDSTWTPVPDERVPKPRPGCCAGSSSLEKYATSNEFPDDTLNFIKTHPLMDEAVPSIINRPWFLRTMVRYRLTKIAVDNAAGPYQNHTVVFLGSEKGIILKFLARIGSSGFLNGSLFLEEMNVYNPEKCSYDGVEDKRIMGMQLDRASGSLYVAFSTCVIKVPLGRCERHGKCKKTCIASRDPYCGWVRESGSCAHLSPLSRLTFEQDIERGNTDGLGDCHNS",Kd,[2],2300 nM
"Sema6A_(ecto)(I322E), coupled to the chip (domain or fragment, mouse, UniProt O35464 19-571, looked up, biotin on the engineered C-terminal tag (enzymatic)) GFPEDSEPISISHGNYTKQYPVFVGHKPGRNTTQRHRLDIQMIMIMNRTLYVAARDHIYTVDIDTSHTEEIYCSKKLTWKSRQADVDTCRMKGKHKDECHNFIKVLLKKNDDTLFVCGTNAFNPSCRNYRVDTLETFGDEFSGMARCPYDAKHANIALFADGKLYSATVTDFLAIDAVIYRSLGDSPTLRTVKHDSKWLKEPYFVQAVDYGDYIYFFFREIAVEYNTMGKVVFPRVAQVCKNDMGGSQRVLEKQWTSFLKARLNCSVPGDSHFYFNILQAVTDVIRINGRDVVLATFSTPYNSEPGSAVCAYDMLDIANVFTGRFKEQKSPDSTWTPVPDERVPKPRPGCCAGSSSLEKYATSNEFPDDTLNFIKTHPLMDEAVPSIINRPWFLRTMVRYRLTKIAVDNAAGPYQNHTVVFLGSEKGIILKFLARIGSSGFLNGSLFLEEMNVYNPEKCSYDGVEDKRIMGMQLDRASGSLYVAFSTCVIKVPLGRCERHGKCKKTCIASRDPYCGWVRESGSCAHLSPLSRLTFEQDIERGNTDGLGDCHNS",binding result,[2],binds
"mouse Sema6A_(ecto), C-terminal His-tag (domain or fragment) GFPEDSEPISISHGNYTKQYPVFVGHKPGRNTTQRHRLDIQMIMIMNRTLYVAARDHIYTVDIDTSHTEEIYCSKKLTWKSRQADVDTCRMKGKHKDECHNFIKVLLKKNDDTLFVCGTNAFNPSCRNYRVDTLETFGDEFSGMARCPYDAKHANIALFADGKLYSATVTDFLAIDAVIYRSLGDSPTLRTVKHDSKWLKEPYFVQAVDYGDYIYFFFREIAVEYNTMGKVVFPRVAQVCKNDMGGSQRVLEKQWTSFLKARLNCSVPGDSHFYFNILQAVTDVIRINGRDVVLATFSTPYNSIPGSAVCAYDMLDIANVFTGRFKEQKSPDSTWTPVPDERVPKPRPGCCAGSSSLEKYATSNEFPDDTLNFIKTHPLMDEAVPSIINRPWFLRTMVRYRLTKIAVDNAAGPYQNHTVVFLGSEKGIILKFLARIGSSGFLNGSLFLEEMNVYNPEKCSYDGVEDKRIMGMQLDRASGSLYVAFSTCVIKVPLGRCERHGKCKKTCIASRDPYCGWVRESGSCAHLSPLSRLTFEQDIERGNTDGLGDCHNS",fold weaker binding than wild type,PlxnA2_(1–4)(D193K),> 9 fold

# Source: article PMC3587840 (Nature, 2010)
